pEC50: −log10 of the molar value.
Biological target: Aβ 1-40 peptide (UniProt P05067)
Assay: ELISA; Aβ1-40 peptide coated on Maxisorp plates (0.1 µg/ml, bicarbonate buffer pH 9.6); antibodies serially diluted in PBS/1 % BSA, 1 h at room temperature; detected with biotinylated anti-mouse IgG and streptavidin poly-HRP; relative affinity

Substance: chGantenerumab (mouse/human chimeric version of Gantenerumab with mouse IgG2a constant region) (antibody)
- pEC50: 12.47

— paper PMC4612324
